These binders were tested against N-terminally His6-tagged human PCNA (proliferating cell nuclear antigen) (human, UniProt P12004 1-261) (assay: ITC).
Sequence of N-terminally His6-tagged human PCNA (proliferating cell nuclear antigen) (P12004 whole entry): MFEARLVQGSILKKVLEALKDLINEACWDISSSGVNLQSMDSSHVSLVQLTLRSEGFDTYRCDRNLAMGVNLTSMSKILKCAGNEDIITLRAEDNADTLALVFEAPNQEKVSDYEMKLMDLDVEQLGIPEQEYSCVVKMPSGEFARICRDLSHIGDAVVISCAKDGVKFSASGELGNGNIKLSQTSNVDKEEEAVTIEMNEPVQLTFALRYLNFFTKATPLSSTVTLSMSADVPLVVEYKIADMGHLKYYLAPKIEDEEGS
For Ac-SESSQTSMTDFYHSKRRL-NH2 [S1, mutant variant of p21^140–157 (Ac-SESSQTSMTDFYHSKRRL-NH2)], the Kd was 8.3 µM. Ac-SESSQTSMTDFYHSESSL-NH2 [D1.2, mutant variant of p21^140–157 (Ac-SESSQTSMTDFYHSESSL-NH2)] was tested, and the Kd was 40 µM. Ac-RKRRQTSMTDFYHSESSL-NH2 [S2, mutant variant of p21^140–157 (Ac-RKRRQTSMTDFYHSESSL-NH2)] gave a Kd of 0.3 µM.

From paper PMC6881253 (2019)
